# According to US9150649B2, “Potent conjugates and hydrophilic linkers” (priority 2008, dated 2015):
# B1: unconjugated antibody: unconjugated humanized C242 antibody, binds the CanAg antigen (antibody, chains of the INN, looked up, V domains shown)
# VH: QVQLVQSGAEVKKPGETVKISCKASDYTFTYYGMNWVKQAPGQGLKWMGWIDTTTGEPTYAQKFQGRIAFSLETSASTAYLQIKSLKSEDTATYFCARRGPYNWYFDVWGQGTTVTVSS
# VL: DIVMTQSPLSVPVTPGEPVSISCRSSKSLLHSNGNTYLYWFLQRPGQSPQLLIYRMSNLVSGVPDRFSGSGSGTAFTLRISRVEAEDVGVYYCLQHLEYPFTFGPGTKLELK
# Settings: mouse, in vivo, iv, 12 mg/kg
# Procedure: CD1 mice were injected intravenously, by a single bolus, of 5 mg/kg conjugates (antibody-based dose; 3 mice per group). Plasma samples were collected at several time points up to 4 weeks. The plasma samples were analyzed for antibody concentration and for conjugate concentration using ELISA. For antibody ELISA, the plasma samples were added to microtiter plates containing coated, immobilized goat-anti-human IgG (H+L) antibody, washed, and detected using horseradish peroxidase-conjugated goat-anti-human IgG (Fe) antibody. For conjugate concentration, the plasma samples were added to microtiter plates containing coated, immobilized goat-anti-human IgG (H+L) antibody, washed, and detected using biotinylated anti-maytansine antibody and alkaline phosphatase-conjugated streptavidin.
molecule,measurement,value
B1,area under the curve (AUC),38798 µg·h/mL
